5 molecules from PMC5902190 (Biochemistry, 2017) can be followed below.

Common to all, as to experiment: ATP/PPi exchange rate against MLP concentration
In experiment [1] the target is EntF, enterobactin nonribosomal peptide synthetase (E. coli) (UniProt P11454).
Experiment [2] has as its target T1, EntF, enterobactin nonribosomal peptide synthetase (E. coli, UniProt P11454 1-1293).
Experiment [3] deals with T1, EntF, enterobactin nonribosomal peptide …. This is another data set of the same source.

Where two headings read alike, the source gives them in different places.

T1 sequence (P11454 whole entry): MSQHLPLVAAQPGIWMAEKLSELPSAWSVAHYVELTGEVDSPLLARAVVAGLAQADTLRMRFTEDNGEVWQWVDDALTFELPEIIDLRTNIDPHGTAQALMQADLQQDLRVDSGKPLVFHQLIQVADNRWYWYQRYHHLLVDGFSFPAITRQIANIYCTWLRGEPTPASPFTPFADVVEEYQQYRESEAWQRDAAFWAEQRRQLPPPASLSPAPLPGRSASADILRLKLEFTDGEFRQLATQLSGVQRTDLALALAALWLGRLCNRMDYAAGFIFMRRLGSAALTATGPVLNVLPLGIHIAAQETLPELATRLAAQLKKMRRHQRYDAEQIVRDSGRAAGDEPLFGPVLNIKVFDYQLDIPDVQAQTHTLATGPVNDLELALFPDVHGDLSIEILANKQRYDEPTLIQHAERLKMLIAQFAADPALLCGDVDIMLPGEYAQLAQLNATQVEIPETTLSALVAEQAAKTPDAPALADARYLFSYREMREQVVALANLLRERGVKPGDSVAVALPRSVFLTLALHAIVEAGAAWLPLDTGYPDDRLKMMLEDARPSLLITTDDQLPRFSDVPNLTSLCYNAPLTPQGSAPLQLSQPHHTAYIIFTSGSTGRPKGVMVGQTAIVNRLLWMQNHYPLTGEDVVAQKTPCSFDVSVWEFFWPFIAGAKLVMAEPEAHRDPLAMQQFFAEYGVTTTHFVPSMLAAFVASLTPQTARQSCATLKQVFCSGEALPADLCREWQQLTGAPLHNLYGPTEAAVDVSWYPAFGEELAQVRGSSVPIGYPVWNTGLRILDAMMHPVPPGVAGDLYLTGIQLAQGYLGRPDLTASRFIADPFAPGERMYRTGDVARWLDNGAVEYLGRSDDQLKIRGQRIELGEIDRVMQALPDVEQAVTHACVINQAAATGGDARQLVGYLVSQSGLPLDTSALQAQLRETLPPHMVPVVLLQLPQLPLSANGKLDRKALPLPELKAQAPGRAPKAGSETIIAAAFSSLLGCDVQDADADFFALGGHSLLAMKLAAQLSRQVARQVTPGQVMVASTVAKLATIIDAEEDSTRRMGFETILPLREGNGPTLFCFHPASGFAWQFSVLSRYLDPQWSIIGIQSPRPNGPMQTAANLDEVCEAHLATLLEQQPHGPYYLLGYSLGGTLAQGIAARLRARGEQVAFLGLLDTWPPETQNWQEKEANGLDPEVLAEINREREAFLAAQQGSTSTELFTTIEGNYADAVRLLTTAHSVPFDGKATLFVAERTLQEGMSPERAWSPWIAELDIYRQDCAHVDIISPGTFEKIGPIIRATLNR
Chain of EntF, enterobactin nonribosomal peptide synthetase (E. coli) (P11454 whole entry): as above

For “VioN, MbtH-like protein of viomycin biosynthesis (purified, tag cleaved) (natural protein)”, the Kd (usually the equilibrium constant for the complex coming apart) in experiment [1] stood at 200 nM.

B1: MXAN_3118, orphan MbtH-like protein (purified, tag cleaved) (natural protein, Myxococcus xanthus DK1622, UniProt Q1D7Q2 1-71, looked up)
chain: MTDEREDTTVYKVVVNHEEQYSIWPADRENALGWKDAGKQGLKAECLEYIKEVWTDMRPLSLRKKMEELKS
Turning to B1, the Kd in experiment [2] turned out to be 166 ± 29 nM.

B2: CmnN, MbtH-like protein of capreomycin biosynthesis (purified, tag cleaved) (natural protein, Saccharothrix mutabilis subsp. capreolus, UniProt A6YEI5 1-62, looked up)
chain: MDTYLVVVNHEEQYSVWPADRPLPAGWRAEGTSGDKEQCLAHIETVWTDMRPLSVRRRAEAV
In turn, B2 showed a Kd in experiment [2] of 150 ± 7 nM.

B3: MbtH, MbtH-like protein of mycobactin biosynthesis (purified, tag cleaved) (natural protein)
chain: MSTNPFDDDNGAFFVLVNDEDQHSLWPVFADIPAGWRVVHGEASRAACLDYVEKNWTDLRPKSLRDAMVED
As for B3, the affinity in experiment [3], expressed as Kd, was 54.6 ± 8 nM.

B4: BSU31959, MbtH-like protein of corynebactin biosynthesis (purified, tag cleaved) (natural protein, Bacillus subtilis strain 168, UniProt C0H3Q6 1-69, looked up)
chain: MANPFENADGTYLVLVNEEGQYSLWPGFIDVPSGWTVVHEQKGREACLDYIQSHWSDMRPNSLKTVENV
In experiment [2], B4 came in with a Kd of 310 ± 69 nM.
